The values that follow come from article PMC4173072, “A truncated form of the Carbon catabolite repressor 1 increases cellulase production in Trichoderma reesei”.

This data set concerns the target CREI-96 (truncated Carbon catabolite repressor 1, Cre1-96) (Trichoderma reesei Rut-C30, UniProt G0RB08 1-96). As to the kind of experiment: competition; 2000 nM protein; 50-, 100-, 200-fold competitor against N1; bands unchanged; GST elution buffer, 10 min at 22 °C; non-denaturing PAGE; salt and pH not stated. The following applies: protein: recombinant; tags: GST fusion (37 kDa), thrombin-cleaved before use; label: unlabelled; blunt.

CREI-96 (truncated Carbon catabolite repressor 1, Cre1-96), sequence (G0RB08 entry or part of it): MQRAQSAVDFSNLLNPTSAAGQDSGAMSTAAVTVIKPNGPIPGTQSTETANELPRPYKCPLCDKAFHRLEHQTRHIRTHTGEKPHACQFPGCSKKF

B1: mutated cold competitor RG221/RG222 (dsDNA)
DNA 1: CCAACGGCTTGTTGGGTTGCAGAAGCAACGGCAAAGCCCAACTTCCCAACGTTTGTTTCT
DNA 2: AGAAACAAACGTTGGGAAGTTGGGCTTTGCCGTTGCTTCTGCAACCCAACAAGCCGTTGG
B1: the binding result was “no binding”.
